B1: KLHL3-BB (human KLHL3 BTB-BACK, residues 24-276) (domain or fragment)
chain: RTITVNPAHMGKAFKVMNELRSKQLLCDVMIVAEDVEIEAHRVVLAACSPYFCAMFTGDMSESKAKKIEIKDVDGQTLSKLIDYIYTAEIEVTEENVQVLLPAASLLQLMDVRQNCCDFLQSQLHPTNCLGIRAFADVHTCTDLLQQANAYAEQHFPEVMLGEEFLSLSLDQVCSLISSDKLTVSSEEKVFEAVISWINYEKETRLEHMAKLMEHVRLPLLPRDYLVQTVEEEALIKNNNTCKDFLIEAMKYH
B2: A55BB (A55 BTB-BACK domain, residues 1-250) (domain or fragment)
chain: MNNSSELIAVINGFRNSGRFCDISIVINDERINAHKLILSGASEYFSILFSNNFIDSNEYEVNLSHLDYQSVNDLIDYIYGIPLSLTNDNVKYILSTADFLQIGSAITECENYILKNLCSKNCIDFYIYADKYNNKKIESASFNTILQNILRLINDENFKYLTEESMIKILSDDMLNIKNEDFAPLILIKWLESTQQSCTVELLRCLRISLLSPQVIKSLYSHQLVSSIYECITFLNNIAFLDESFPRYH

Legend:
[1] = biological target: T1, Cul3NΔ22 (human Cul3 N-terminal domain, residues 23-388, I342R L346D) (human, UniProt Q13618 23-388, I342R | L346D); test: ITC
T1 sequence (Q13618 23-388 I342R/L346D): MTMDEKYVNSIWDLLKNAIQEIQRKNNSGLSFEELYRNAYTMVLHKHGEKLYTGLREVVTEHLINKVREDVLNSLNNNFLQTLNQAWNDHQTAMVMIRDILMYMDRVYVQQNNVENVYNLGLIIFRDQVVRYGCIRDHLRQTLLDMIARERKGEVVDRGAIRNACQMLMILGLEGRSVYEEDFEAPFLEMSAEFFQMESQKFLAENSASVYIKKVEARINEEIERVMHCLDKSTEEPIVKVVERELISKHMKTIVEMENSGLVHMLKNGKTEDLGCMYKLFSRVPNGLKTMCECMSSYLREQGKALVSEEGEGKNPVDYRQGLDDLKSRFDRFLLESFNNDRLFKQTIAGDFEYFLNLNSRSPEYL

[2] = biological target: Cul3N (human Cul3 N-terminal domain, residues 1-388, I342R L346D) (human, UniProt Q13618 1-388, I342R | L346D); test: ITC
Cul3N (human Cul3 N-terminal domain, residues 1-388, I342R L346D), sequence (Q13618 1-388 I342R/L346D): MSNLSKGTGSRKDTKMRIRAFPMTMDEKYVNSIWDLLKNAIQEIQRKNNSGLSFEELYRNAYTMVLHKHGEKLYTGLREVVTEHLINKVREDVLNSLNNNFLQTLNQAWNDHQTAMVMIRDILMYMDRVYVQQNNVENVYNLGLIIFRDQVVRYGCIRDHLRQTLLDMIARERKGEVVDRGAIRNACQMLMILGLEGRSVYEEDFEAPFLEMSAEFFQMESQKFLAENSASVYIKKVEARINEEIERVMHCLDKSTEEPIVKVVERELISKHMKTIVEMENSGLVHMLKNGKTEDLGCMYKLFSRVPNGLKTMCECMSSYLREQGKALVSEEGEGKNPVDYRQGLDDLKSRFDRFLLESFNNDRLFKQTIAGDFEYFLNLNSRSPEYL

[3] = biological target: T1, Cul3NΔ22 (human Cul3 N-terminal domain, …); test: SEC-MALS
SEC-MALS = biological target: the molecule itself; test: SEC-MALS

| Binder | dH [1] [kcal/mol] | Kd [2] [nM] | stoichiometry N [2] | Kd [1] [nM] | stoichiometry N [1] | stoichiometry N [3] | stoichiometry N (SEC-MALS) |
| --- | --- | --- | --- | --- | --- | --- | --- |
| B1 | -18.9 | – | – | – | – | – | – |
| B2 | -10.2 | < 1 | 1 | 3 | 1 | 1 A55BB per Cul3NΔ22 (2:2 complex) | 2 |

— paper doi:10.1101/461806 (bioRxiv, 2018)
